Assay results from US20070224205A1.

Target: Toll-like Receptor 5 (UniProt O60602)
Assay: cell-based or functional assay

Binder	TLR5 activity (EC50, ng/ml); IL-8 secretion by HEK293 cells [ng/mL]	TLR activity (EC50, ng/ml); IL-8 secretion by HEK293 cells [ng/mL]
STF2.HA1-1His(PR8), produced in E. coli (protein) MAQVINTNSLSLLTQNNLNKSQSALGTAIERLSSGLRINSAKDDAAGQAIANRFTANIKGLTQASRNANDGISIAQTTEGALNEINNNLQRVRELAVQSANSTNSQSDLDSIQAEITQRLNEIDRVSGQTQFNGVKVLAQDNTLTIQVGANDGETIDIDLKQINSQTLGLDSLNVQKAYDVKDTAVTTKAYANNGTTLDVSGLDDAAIKAATGGTNGTASVTGGAVKFDADNNKYFVTIGGFTGADAAKNGDYEVNVATDGTVTLAAGATKTTMPAGATTKTEVQELKDTPAVVSADAKNALIAGGVDATDANGAELVKMSYTDKNGKTIEGGYALKAGDKYYAADYDEATGAIKAKTTSYTAADGTTKTAANQLGGVDGKTEVVTIDGKTYNASKAAGHDFKAQPELAEAAAKTTENPLQKIDAALAQVDALRSDLGAVQNRFNSAITNLGNTVNNLSEARSRIEDSDYATEVSNMSRAQILQQAGTSVLAQANQVPQNVLSLLASHNGKLCRLKGIAPLQLGKCNIAGWLLGNPECDPLLPVRSWSYIVETPNSENGICYPGDFIDYEELREQLSSVSSFERFEIFPKESSWPNHNTNGVTAACSHEGKSSFYRNLLWLTEKEGSYPKLKNSYVNKKGKEVLVLWGIHHPPNSKEQQNLYQNENAYVSVVTSNYNRRFTPEIAERPKVRDQAGRMNYYWTLLKPGDTIIFEANGNLIAPMYAFALSRGFGSGIITSNASMHECNTKCQTPLGAINSSLPYQNIHPVTIGECPKYVRHHHHHH	0.2	
STF2.HA1-2His(PR8), produced in Baculovirus (protein) AQVINTNSLSLLTQNNLNKSQSALGTAIERLSSGLRINSAKDDAAGQAIANRFTANIKGLTQASRNANDGISIAQTTEGALNEINNNLQRVRELAVQSANSTNSQSDLDSIQAEITQRLNEIDRVSGQTQFNGVKVLAQDNTLTIQVGANDGETIDIDLKQINSQTLGLDSLNVQKAYDVKDTAVTTKAYANNGTTLDVSGLDDAAIKAATGGTNGTASVTGGAVKFDADNNKYFVTIGGFTGADAAKNGDYEVNVATDGTVTLAAGATKTTMPAGATTKTEVQELKDTPAVVSADAKNALIAGGVDATDANGAELVKMSYTDKNGKTIEGGYALKAGDKYYAADYDEATGAIKAKTTSYTAADGTTKTAANQLGGVDGKTEVVTIDGKTYNASKAAGHDFKAQPELAEAAAKTTENPLQKIDAALAQVDALRSDLGAVQNRFNSAITNLGNTVNNLSEARSRIEDSDYATEVSNMSRAQILQQAGTSVLAQANQVPQNVLSLLASGSGSGSKGIAPQLGKCNIAGWLLGNPECDPLLPVRSWSYIVETPNSENGICYPGDFIDYEELREQLSSVSSFERFEIFPKESSWPNHNTNGVTAACSHEGKSSFYRNLLWLTEKEGSYPKLKNSYVNKKGKEVLVLWGIHHPPNSKEQQNLYQNENAYVSVVTSNYNRRFTPEIAERPKVRDQAGRMNYYWTLLKPGDTIIFEANGNLIAPMYAFALSRGFGSGIITSHHHHHH		9
ngSTF2.HA1-2mutHis(PR8) (protein) AQVINTNSLSLLTQNNLQKSQSALGTAIERLSSGLRINSAKDDAAGQAIANRFTANIKGLTQASRNANDGISIAQTTEGALNEINNNLQRVRELAVQSAQSTNSQSDLDSIQAEITQRLNEIDRVSGQTQFNGVKVLAQDNTLTIQVGANDGETIDIDLKQINSQTLGLDSLNVQKAYDVKDTAVTTKAYANQGTTLDVSGLDDAAIKAATGGTQGTASVTGGAVKFDADNNKYFVTIGGFTGADAAKNGDYEVNVATDGTVTLAAGATKTTMPAGATTKTEVQELKDTPAVVSADAKNALIAGGVDATDANGAELVKMSYTDKNGKTIEGGYALKAGDKYYAADYDEATGAIKAKTTSYTAADGTTKTAANQLGGVDGKTEVVTIDGKTYQASKAAGHDFKAQPELAEAAAKTTENPLQKIDAALAQVDALRSDLGAVQNRFNSAITNLGNTVNQLSEARSRIEDSDYATEVSQMSRAQILQQAGTSVLAQANQVPQNVLSLLASGSGSGSKGAAPQLGKCNIAGWLLGNPECDPLLPVRSWSDIAETPNSENGICYPGDFIDYEELREQLSSVSSFERFEIFPKESSWPNHNTNGVTAACSHEGKSSFYRNLLWLTEKEGSYPKLKNSYVNKKGKEVLVLWGIHHPPNSKEQQNLYQNENAYVSVVTSNYNRRFTPEIAERPKVRDQAGRMNYYWTLLKPGDTIIFEANGNLIAPMYAFALSRGFGSGIITSHHHHHH		9
STF2.HA1-2(PR8), produced in E. coli (protein) MAQVINTNSLSLLTQNNLNKSQSALGTAIERLSSGLRINSAKDDAAGQAIANRFTANIKGLTQASRNANDGISIAQTTEGALNEINNNLQRVRELAVQSANSTNSQSDLDSIQAEITQRLNEIDRVSGQTQFNGVKVLAQDNTLTIQVGANDGETIDIDLKQINSQTLGLDSLNVQKAYDVKDTAVTTKAYANNGTTLDVSGLDDAAIKAATGGTNGTASVTGGAVKFDADNNKYFVTIGGFTGADAAKNGDYEVNVATDGTVTLAAGATKTTMPAGATTKTEVQELKDTPAVVSADAKNALIAGGVDATDANGAELVKMSYTDKNGKTIEGGYALKAGDKYYAADYDEATGAIKAKTTSYTAADGTTKTAANQLGGVDGKTEVVTIDGKTYNASKAAGHDFKAQPELAEAAAKTTENPLQKIDAALAQVDALRSDLGAVQNRFNSAITNLGNTVNNLSEARSRIEDSDYATEVSNMSRAQILQQAGTSVLAQANQVPQNVLSLLAKGIAPLQLGKCNIAGWLLGNPECDPLLPVRSWSYIVETPNSENGICYPGDFIDYEELREQLSSVSSFERFEIFPKESSWPNHNTNGVTAACSHEGKSSFYRNLLWLTEKEGSYPKLKNSYVNKKGKEVLVLWGIHHPPNSKEQQNLYQNENAYVSVVTSNYNRRFTPEIAERPKVRDQAGRMNYYWTLLKPGDTIIFEANGNLIAPMYAFALSRGFGSGIITS	0.15	
STF2.HA1-2mutHis(PR8), produced in Baculovirus (protein) AQVINTNSLSLLTQNNLNKSQSALGTAIERLSSGLRINSAKDDAAGQAIANRFTANIKGLTQASRNANDGISIAQTTEGALNEINNNLQRVRELAVQSANSTNSQSDLDSIQAEITQRLNEIDRVSGQTQFNGVKVLAQDNTLTIQVGANDGETIDIDLKQINSQTLGLDSLNVQKAYDVKDTAVTTKAYANNGTTLDVSGLDDAAIKAATGGTNGTASVTGGAVKFDADNNKYFVTIGGFTGADAAKNGDYEVNVATDGTVTLAAGATKTTMPAGATTKTEVQELKDTPAVVSADAKNALIAGGVDATDANGAELVKMSYTDKNGKTIEGGYALKAGDKYYAADYDEATGAIKAKTTSYTAADGTTKTAANQLGGVDGKTEVVTIDGKTYNASKAAGHDFKAQPELAEAAAKTTENPLQKIDAALAQVDALRSDLGAVQNRFNSAITNLGNTVNNLSEARSRIEDSDYATEVSNMSRAQILQQAGTSVLAQANQVPQNVLSLLASGSGSGSKGAAPLQLGKCNIAGWLLGNPECDPLLPVRSWSDIAETPNSENGICYPGDFIDYEELREQLSSVSSFERFEIFPKESSWPNHNTNGVTAACSHEGKSSFYRNLLWLTEKEGSYPKLKNSYVNKKGKEVLVLWGIHHPPNSKEQQNLYQNENAYVSVVTSNYNRRFTPEIAERPKVRDQAGRMNYYWTLLKPGDTIIFEANGNLIAPMYAFALSRGFGSGIITSHHHHHH		900
